Laboratory results taken from patent publication US20120128758A1.

Columns and labels:
[1] = molecular target: TND-669S HIV-1 envelope (HIV-1); test: cell-based or functional assay
[2] = molecular target: TND-669L HIV-1 envelope (HIV-1); test: cell-based or functional assay
[3] = molecular target: SP62 (gp41 652-671)-GTH1 peptide anchored to liposomes; test: SPR on peptide-liposomes, encounter-docking (two-step) model, forward rate of the docking step; row '2F5 peptide liposome'
[4] = molecular target: SP62-L669S (gp41 652-671)-GTH1 peptide anchored to liposomes; test: SPR, peptide anchored to phospholipid liposomes
[5] = molecular target: SP62 (gp41 652-671)-GTH1 peptide anchored to liposomes; test: SPR, peptide anchored to phospholipid liposomes
[6] = molecular target: SP62 (gp41 652-671)-GTH1 peptide anchored to liposomes; test: SPR on peptide-liposomes, encounter-docking (two-step) model, reverse rate of the docking step; row '2F5 peptide liposome'
[7] = molecular target: SP62-L669S (gp41 652-671)-GTH1 peptide anchored to liposomes; test: SPR on peptide-liposomes, encounter-docking (two-step) model, dissociation of the encounter step; row 'L669S 2F5 peptide liposome'
[8] = molecular target: SP62-L669S (gp41 652-671)-GTH1 peptide anchored to liposomes; test: SPR on peptide-liposomes, encounter-docking (two-step) model, forward rate of the docking step; row 'L669S 2F5 peptide liposome'
[9] = molecular target: SP62-L669S (gp41 652-671)-GTH1 peptide anchored to liposomes; test: SPR on peptide-liposomes, encounter-docking (two-step) model, association of the encounter step; row 'L669S 2F5 peptide liposome'
[10] = molecular target: SP62 (gp41 652-671)-GTH1 peptide anchored to liposomes; test: SPR on peptide-liposomes, encounter-docking (two-step) model, association of the encounter step; row '2F5 peptide liposome'
[11] = molecular target: SP62-L669S (gp41 652-671)-GTH1 peptide anchored to liposomes; test: SPR on peptide-liposomes, encounter-docking (two-step) model, reverse rate of the docking step; row 'L669S 2F5 peptide liposome'
[12] = molecular target: SP62 (gp41 652-671)-GTH1 peptide anchored to liposomes; test: SPR on peptide-liposomes, encounter-docking (two-step) model, dissociation of the encounter step; row '2F5 peptide liposome'

## mAb 2F5 (antibody)
[1]
  mean IC50, neutralisation of Env-pseudovirus on JC53-BL cells: 0.014 µg/mL
[2]
  mean IC50, neutralisation of Env-pseudovirus on JC53-BL cells: 3.92 µg/mL
[3]
  ka2: 0.0181 s⁻¹
[4]
  response unit (background subtracted) at 10 seconds after the injection was stopped: 617 RU
[5]
  response unit at 10 seconds after the injection was stopped: 495 RU
[6]
  kd2: 0.00037 s⁻¹
[7]
  kd1: 0.00119 s⁻¹
[8]
  ka2: 0.0054 s⁻¹
[9]
  ka1: 498000 M⁻¹ s⁻¹
[10]
  ka1: 931000 M⁻¹ s⁻¹
[11]
  kd2: 2e-05 s⁻¹
[12]
  kd1: 0.00692 s⁻¹

## mAb 4E10 (antibody)
[1]
  fold lower neutralisation IC50 against TND-669S than against TND-669L: 275 fold
  mean IC50, neutralisation of Env-pseudovirus on JC53-BL cells: 0.031 µg/mL
[2]
  mean IC50, neutralisation of Env-pseudovirus on JC53-BL cells: 8.49 µg/mL

## mAb 17b (antibody)
[1]
  increase in neutralization sensitivity against TND-669L: 2 fold

## mAb 447-52D (antibody)
[1]
  enhancement of neutralization sensitivity against TND-669L: > 161 fold
  neutralization of Env-pseudovirus, IC50: 0.31 µg/mL
